Peptide text beside a SMILES is read from it.
Assay: Biodistribution in normal mice
Assay type: in vivo
Conditions: i.v. 1 μg in 100 μl (18.5 MBq), mean±SD, n=4; for Intestine uptake (with contents): normal female NMRI mice
Method: All animal investigations were approved by Mazandaran University of Medical Sciences Research and Ethical Committee in Sari, Iran. Twelve normal female NMRI mice (20–30 g) were randomly divided into three groups of four. 1 μg of (^99mTc) Tc –HYNIC–J18 peptide in 100 μl of buffer (18.5 MBq) was injected into the tail vein. All animals were sacrificed one, four, and twenty-four hours following radiolabeled peptide injection. Mice were euthanized with an appropriate dose of ketamine/xylazine (Sigma, USA) diluted with sterile water (1:3 v/v). Following deep anesthesia, blood was extracted by heart puncture with a 1-mL syringe washed with diluted heparin. Blood, liver, spleen, salivary gland, stomach, kidney, muscle, and bone samples were dissected and weighed, and radioactivity was measured. Except for the intestines, which were computed as a percentage of the injected dose per gram tissue (percent ID/g), the tissue uptake data was calculated as a percentage of the administered dose per total sample.

CC(C)C[C@H](NC(=O)[C@H](CO)NC(=O)[C@H](CCCNC(=N)N)NC(=O)[C@H](CO)NC(=O)[C@H](CO)NC(=O)[C@H](CO)NC(=O)c1ccc(NN)nc1)C(=O)N[C@@H](Cc1c[nH]c2ccccc12)C(=O)N[C@@H](CO)C(=O)N[C@@H](CC(=O)O)C(=O)N[C@@H](Cc1ccccc1)C(=O)N[C@@H](Cc1ccc(O)cc1)C(=O)N[C@@H](C)C(=O)N[C@@H](CO)C(=O)N[C@@H](C)C(=O)N[C@@H](CO)C(=O)N[C@@H](CCCNC(=N)N)C(=O)NCC(=O)N1CCC[C@H]1C(=O)O [Peptide 1, (^99mTc)Tc-HYNIC-(Ser)3-J18 with tricine, metal not drawn] (HELM PEPTIDE1{[NNc1ccc(C(=O)[*:2])cn1].S.S.S.R.S.L.W.S.D.F.Y.A.S.A.S.R.G.P}$$$$V2.0; C-terminus assumed)
Intestine uptake (with contents) (4 hr): 5.85±2.14 percentage of injected dose per whole sample
Intestine uptake (with contents) (24 hr): 1.11±0.38 percentage of injected dose per whole sample
tissue uptake at 4 h (female, NMRI, mouse, spleen, iv, 1 ug, total radioactivity, 4 hr): 2.24 ± 1.81 %ID/g

Source: paper PMC8751750, “Effect of using different co-ligands during ^99mTc-labeling of J18 peptide on SK-MES-1 cell binding and tumor targeting” (Iranian Journal of Basic Medical Sciences, 2021)
